According to US20240190920A1, “BECLIN 1-TARGETED STAPLED PEPTIDE AND PHARMACEUTICAL COMPOSITION” (Shenzhen Research Institute of the Hong Kong Polytechnic …, priority 2021, published 2024):
Read-outs that look alike come from different tables or passages of the source. Bridge positions count the residues as written; N and C are the ends. Square brackets hold non-standard residues; d marks the D form. Ends that are not written are not given here. Peptide text beside a SMILES is read from it. R8 = C=CCCCCCC[C@@](C)(N)C(=O)O; S5 = C=CCCC[C@](C)(N)C(=O)O

Legend:
SKBR3 cells = assay: Flow cytometry with Annexin V FITC-PI staining; type: cell-based; settings: SKBR3, 24 hours
Protocol: FIG. 12 is a schematic diagram of the result showing the peptides based on strategy (i7-01s) scaffold induce cell death with necrotic features. Flow cytometry analysis with Annexin V FITC-PI staining is performed in SKBR3 cells after treatment of the indicated peptides for 24 hours.
The degree of cellular apoptosis and necrosis is assessed by flow cytometry following the standard protocol provided by the manufacturer. Briefly, SKBR3 cells after the indicated peptide treatment are harvested by trypsin, labelled with Annexin V and PI (Invitrogen), subjected to flow cytometer system (BD Accuri C6), and analyzed by BD Accuri C6 software. The cell populations can be distinguished by the staining of Annexin V/PI. Typically, cellular population in the lower left quadrant is live cells (Annexin V^−, PI^−), the lower right quadrant represents early apoptotic cells (Annexin V^+, PI^−), the upper right quadrant represents late apoptotic cells (Annexin V^+, PI^+), the upper left quadrant represents necrotic cells (Annexin V^−, PI^+).

[1] = target: T1, Beclin 1 coiled coil domain (Homo sapiens, UniProt Q14457); assay: Isothermal titration calorimetry (ITC) binding affinity; settings: 25° C., pH 7.4, Tat-fused peptide
T1 construct: the coiled coil domain of human Beclin 1 (residues 176-268); thioredoxin-6xHis fusion tag with HRV 3C protease cleavage site; made in house; host or cells: Escherichia coli BL21(DE3)
Protocol: The expression and purification of Beclin 1 coiled coil domain is performed as described previously. Briefly, the coiled coil domain of human Beclin 1 (residues 176-268) is cloned into the modified pET32a vector containing the human rhinovirus (HRV) 3C protease cleavage site and thioredoxin-6×His fusion tag. Recombinant protein for the Beclin1 coiled oil domain is expressed in Escherichia coli BL21(DE3) and purified by Ni^2+-NTA affinity chromatography (His Trap HP, GE Healthcare) first and followed by size-exclusion chromatography (Superdex 75, GE Healthcare).
ITC assays are carried out by MicroCal PEAQ-ITC Automated (Marvern) at 25° C. All designed peptides and purified protein for the Beclin 1 coiled coil domain are dialyzed into the buffer containing 50 mM Tris, 150 mM NaCl at pH 7.4. For each titration assay, the injection syringe is loaded with 40 μl of peptide and the cell is loaded with Beclin 1 coiled coil domain protein. Typically, titrations consist of 19 injections, and each injection is performed at a time interval of 180 seconds to ensure that the titration peak returns to the baseline. The titration data are analyzed using the MicroCal PEAQ-ITC Analysis software and fitted by the one-site binding model.

T1 sequence (Q14457 176-268): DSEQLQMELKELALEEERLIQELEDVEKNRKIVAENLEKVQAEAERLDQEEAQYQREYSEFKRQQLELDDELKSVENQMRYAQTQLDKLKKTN

| Kd [1] | Compound | further results |
| --- | --- | --- |
| – | COc1cccc2c1C(=O)c1c(O)c3c(c(O)c1C2=O)C[C@@](O)(C(=O)CO)C[C@@H]3O[C@H]1C[C@H](N)[C@H](O)[C@H](C)O1 [doxorubicin, reference compound] | change of Annexin V positive cells (apoptosis) (SKBR3 cells): significant increase |
| – | CC[C@H](C)[C@H](NC(=O)[C@H](CC(C)C)NC(=O)[C@H](C)NC(=O)[C@H](CCCNC(=N)N)NC(=O)[C@H](CCCNC(=N)N)NC(=O)[C@H](CCCNC(=N)N)NC(=O)[C@H](CCC(N)=O)NC(=O)[C@H](CCCNC(=N)N)NC(=O)[C@H](CCCNC(=N)N)NC(=O)[C@H](CCCCN)NC(=O)[C@H](CCCCN)NC(=O)[C@H](CCCNC(=N)N)NC(=O)CNC(=O)[C@H](Cc1ccc(O)cc1)NC(C)=O)C(=O)N[C@@H](CCC(N)=O)C(=O)N[C@]1(C)CCCCCCC=CCCC[C@@](C)(C(=O)N[C@@H](CCCNC(=N)N)C(=O)N[C@@H](CCCCN)C(=O)N[C@@H](CCCNC(=N)N)C(N)=O)NC(=O)[C@H](CCCCN)NC(=O)[C@H](CCC(=O)O)NC(=O)[C@H](C(C)C)NC(=O)[C@H](CC(=O)O)NC(=O)[C@H](CCC(=O)O)NC(=O)[C@H](CCC(N)=O)NC1=O [i7-01s-54, Ace-ALIQR8QEDVEKS5RKR-Nme] (Ac-YGRKKRRQRRRALIQ[R8]QEDVEK[S5]RKR-NH2; staple 16-23) | Kd ([1]; read-out: Kd): 311 ± 54.6 µM |
| No binding | Ace-RLIQR8REDVEKS5RKR-Nme (Ac-RLIQ[R8]REDVEK[S5]RKR; staple 5-12; not fully specified (C-terminus); printed as Ace-RLIQR8REDVEKS5RKR-Nme) [i7-01s-36] | – |
| No binding | Ace-RLLQR8LKTVLKS5RSV-Nme (Ac-RLLQ[R8]LKTVLK[S5]RSV; staple 5-12; not fully specified (C-terminus); printed as Ace-RLLQR8LKTVLKS5RSV-Nme) [i7-01s-30] | – |
| No binding | Ace-RFIQR8LEVVIKS5RSV-Nme (Ac-RFIQ[R8]LEVVIK[S5]RSV; staple 5-12; not fully specified (C-terminus); printed as Ace-RFIQR8LEVVIKS5RSV-Nme) [i7-01s-34] | – |
